Where two headings read alike, the source gives them in different places.
Experiments:
OVCAR3 cells = test: Crystal Violet cytotoxicity assay (Examples 1 and 2), OVCAR3; conditions: read-out: Cytotoxicity (IC50) OVCAR3; OVCAR3 cells; mean of replicate experiments, where performed
Experimental: (§1) Typically, test reagents were serial diluted 1:4 in 2 mL deep-well dilution plates, starting at 1 μM (10 dilutions total). 100 μL of diluted samples were added to the cell plates (starting concentration of test samples at 500 nM). […] Medium was discarded, plates were washed once with 200 μL DPBS, stained with 50 μL of 0.2% Crystal Violet solution at room temperature for 15 min, and then washed extensively with tap water. Plates were air-dried, and Crystal Violet was dissolved with 200 μL of 1% SDS solution. Plates were read at 570 nm. Data was analyzed using GraphPad Prism 6. Assays were performed using a seeding density of 1,000 cells per well and compound exposure was for a total of 5 days. When shorter-term exposure was desired, medium containing cytotoxic agents was removed after 4 hours and replaced with fresh growth medium prior to 5-day incubation. For OVCAR3, CaOV3, and NCI-H2110, cells were seeded at 3,000 cells/well and incubated for 5 days with ADC.
(§2) SJSA-1 cells are a human osteosarcoma tumor cell line that are negative for folate receptor alpha.
Typically, test reagents were serially-diluted 1:4 in 2 mL deep-well dilution plates, starting at 1 μM (10 dilutions total). 100 μL of diluted samples were added to the cell plates (starting concentration of test samples at 100 nM). […] Plates were read at 570 nm. Data was analyzed using GraphPad Prism 6.

SJSA-1 cells [1] = test: Serum stability assay, cytotoxicity readout on SJSA-1
Experimental: (§3) Following incubation, samples were frozen and stored at −20° C. until evaluation in cytotoxicity and binding assays. For cytotoxicity analyses, samples were evaluated on IGROV1 and SJSA-1 cells, as detailed in section 1.4.1. For binding assessment, samples were evaluated using a solution-based MSD ECL assay.
(§4) ER-001161319 is maytansine-based ADC comprising the same cleavable linker as VCP-eribulin, maleimido-PEG2-Val-Cit-pAB. PBS and serum controls were included to correct for any serum effects on assay performance.

IGROV1 cells [2] = test: Crystal Violet cytotoxicity assay (Examples 1 and 2), IGROV1
Experimental: as §1
(§5) In vitro potency of prepared ADCs was assessed using a Crystal Violet assay as detailed in section 1.4.1.
as §2
Typically, test reagents were serially-diluted 1:4 in 2 mL deep-well dilution plates, starting at 1 μM (10 dilutions total). […] Plates were read at 570 nm. Data was analyzed using GraphPad Prism 6.

NCI-H2110 cells = conditions: read-out: IC50 on NCI-H2110; Example 1
Experimental: as §1, §2
(§6) Typically, test reagents were serially-diluted 1:4 in 2 mL deep-well dilution plates, starting at 1 μM (10 dilutions total). 100 μL of diluted samples were added to the cell plates (starting concentration of test samples at 100 nM). […] Medium was discarded, plates were washed once with 200 μL DPBS, stained with 50 μL of 0.2% Crystal Violet solution at room temperature for 15 min, and then washed extensively with tap water. Plates were air-dried, and Crystal Violet was dissolved with 200 μL of 1% SDS solution. Plates were read at 570 nm. Data was analyzed using GraphPad Prism 6.

SJSA-1 cells [3] = test: Crystal Violet cytotoxicity assay (Examples 1 and 2), SJSA-1
Experimental: as §1, §5, §2, §6

IGROV1 cells [4] = test: Serum stability assay, cytotoxicity readout on IGROV1
Experimental: as §3, §4

[5] = read-out: Cell-based cytotoxicity assay, EC50, Human Serum, 0 hr-PBS
[6] = read-out: Cell-based cytotoxicity assay, EC50, Human Serum, 0 hr-Serum
[7] = read-out: Cell-based cytotoxicity assay, EC50, Human Serum, 4 hr at 37° C.
[8] = read-out: Cell-based cytotoxicity assay, EC50, Human Serum, 24 hr at 37° C.
[9] = read-out: Cell-based cytotoxicity assay, EC50, Mouse Serum, 0 hr-Serum
[10] = read-out: Cell-based cytotoxicity assay, EC50, Mouse Serum, 4 hr at 37° C.
[11] = read-out: Cell-based cytotoxicity assay, EC50, Mouse Serum, 24 hr at 37° C.
[12] = read-out: Cell-based cytotoxicity assay, EC50, Mouse Serum, 48 hr at 37° C.
[13] = read-out: Cell-based cytotoxicity assay, EC50, PBS, 0 hr-PBS
[14] = read-out: Cell-based cytotoxicity assay, EC50, PBS, 0 hr-Serum
[15] = read-out: Cell-based cytotoxicity assay, EC50, PBS, 4 hr at 37° C.
[16] = read-out: Cell-based cytotoxicity assay, EC50, PBS, 24 hr at 37° C.
[17] = read-out: Cell-based cytotoxicity assay, EC50, PBS, 48 hr at 37° C.

MORAb-003-PEG-pAB-duostatin 3 [M-0285] showed an IC50 (OVCAR3 cells) of 8.8 nM, an EC50 (SJSA-1 cells [1]; [5]) of over 10 nM and an EC50 (SJSA-1 cells [1]; [6]) of over 10 nM. It also gave an EC50 (SJSA-1 cells [1]; [7]) of over 10 nM, an EC50 (SJSA-1 cells [1]; [8]) of over 10 nM and an EC50 (SJSA-1 cells [1]; read-out: Cell-based cytotoxicity assay, EC50, Human Serum, 48 hr at 37° C.) of over 10 nM. The EC50 (SJSA-1 cells [1]; read-out: Cell-based cytotoxicity assay, EC50, Mouse Serum, 0 hr-PBS) was over 10 nM, the EC50 (SJSA-1 cells [1]; [9]) was over 10 nM and the EC50 (SJSA-1 cells [1]; [10]) was over 10 nM. It also gave an EC50 (SJSA-1 cells [1]; [11]) of over 10 nM, an EC50 (SJSA-1 cells [1]; [12]) of over 10 nM and an EC50 (SJSA-1 cells [1]; [13]) of over 10 nM. It also gave an EC50 (SJSA-1 cells [1]; [14]) of over 10 nM, an EC50 (SJSA-1 cells [1]; [15]) of over 10 nM and an EC50 (SJSA-1 cells [1]; [16]) of over 10 nM. For the same substance, the EC50 (SJSA-1 cells [1]; [17]) was over 10 nM, the “cytotoxicity and specificity on IGROV1 cell line, in words” value (IGROV1 cells [2]; Example 1 screening, IGROV1 versus SJSA-1) was “specific cytotoxicity” and the IC50 (IGROV1 cells [2]; read-out: Cytotoxicity (IC50) IGROV1, IGROV1 cells, mean of replicate experiments, where performed) was 0.3 nM. For the same substance, the IC50 (NCI-H2110 cells) was 14 nM, the “killing of FR-negative SJSA-1 cells (off-target), in words” value (SJSA-1 cells [3]; Example 1 screening) was “little cytotoxicity” and the IC50 (SJSA-1 cells [3]; read-out: Cytotoxicity (IC50) SJSA-1, SJSA-1 cells, mean of replicate experiments, where performed) was over 100 nM. For the same substance, the EC50 (IGROV1 cells [4]; [5]) was 0.089 nM, the EC50 (IGROV1 cells [4]; [6]) was 0.078 nM and the EC50 (IGROV1 cells [4]; [7]) was 0.075 nM. For the same substance, the EC50 (IGROV1 cells [4]; [8]) was 0.074 nM, the EC50 (IGROV1 cells [4]; [9]) was 0.049 nM and the EC50 (IGROV1 cells [4]; [10]) was 0.049 nM. It also gave an EC50 (IGROV1 cells [4]; [11]) of 0.044 nM, an EC50 (IGROV1 cells [4]; [12]) of 0.051 nM and an EC50 (IGROV1 cells [4]; [13]) of 0.074 nM. For the same substance, the EC50 (IGROV1 cells [4]; [14]) was 0.063 nM, the EC50 (IGROV1 cells [4]; [15]) was 0.065 nM and the EC50 (IGROV1 cells [4]; [16]) was 0.059 nM. It also gave an EC50 (IGROV1 cells [4]; [17]) of 0.043 nM.

Reference: patent US20230398228A1, “ERIBULIN-BASED ANTIBODY-DRUG CONJUGATES AND METHODS OF USE” (EISAI R&D MANAGEMENT CO., LTD., priority 2016, published 2023)
